Values quoted from earlier work, collected in paper PMC7103376.

Molecular target: 3CLpro (SARS coronavirus) (UniProt P0C6X7)

## 3CLpro (from UniProt P0C6X7)
  Kd: < 100 nM
